Measurements taken from patent publication US20070086956A1, “Method for accelerating the rate of mucociliary clearance” (BAYER AKTIENGESELLSCHAFT, priority 1998, published 2007).
Where two headings read alike, the source gives them in different places.

What was measured:
[1] = Stability to degradation on incubation; assay type: physicochemical; conditions: 72-hours incubation at ambient temperature or at 37° C., neutral pH
human plasma kallikrein = target: T1, human plasma kallikrein (Homo sapiens, UniProt P03952); experiment: Anti-protease activity before and after nebulization; assay type: biochemical
T1 construct: purchased Sigma (St. Louis, Mo.)
Procedure: The aim of this study was to assess the anti-protease activity of Bikunin (1-170) described in Example 17 following nebulization. All studies were performed with Bikunin formulated in phosphate buffered saline, pH 7.4 (137 mM NaCl, 3 mM KCl, 3 mM KH2PO4, 8 mM Na2HPO4, 0.02 g/L Tween 80).
Raindrop® Medication Nebulizer: Bikunin was aerosolized at concentrations of 1 and 3 mg/mL. The nebulizer cup was filled with 2.5 mL of Bikunin solution. Aerosolisation was performed at 7.35 L/min or 35 psi.
Collison Nebulizer: Bikunin was aerosolised at a concentration of 4.7 mg/mL. The nebulizer cup was filled with 2.5 mL of Bikunin solution. Aerosolisation was performed at 35 psi.
Aerosolised Bikunin was collected using a twin impinger (6.4 um mean aerodynamic particle cut-off size at 60 L/min through the system). The impinger works on the principle of liquid impingement and divided the aerosol into a non-respirable fraction (>6.4 um collected in Stage 1) and a respirable fraction (<6.4 um collected in Stage 2).
Bikunin activity was measured in vitro by its inhibition of human plasma kallikrein.

[2] = tested on: human bronchial epithelial cell (HBE); experiment: Short circuit current (Isc) in cultured human bronchial epithelial (HBE) cells, Ussing chamber; assay type: cell-based; conditions: for sodium current: over a 90 minute period, FIG. 17
Procedure: Tertiary HBE cell monolayer grown to confluence were mounted in modified Ussing chambers, immersed in Krebs buffer (KBR) solution and bubbled with 95% O2/5% CO2 warmed to 37 C.
Cells were left to equilibrate for 20 minutes before calibrating for background noise and fluid resistance. Transepithelial potential difference was then clamped to 0 mV using a WPI EVC 4000 voltage clamp. Ag/AgCl electrodes were used to monitor Isc. […] Once a response to amiloride was seen, it was washed out with KBR solution. […] 90 minutes following agent treatment, amiloride (10 uM) was added. Once the current was stable forskolin (10 uM) and then bumetanide (100 uM) was added.
Tertiary HBE cell monolayers grown to confluence were mounted in modified Ussing chambers, immersed in Krebs buffer (KBR) solution and bubbled with 95% O2/5% CO2 warmed to 37 C.
Cells were left to equilibrate for 20 minutes before calibrating for background noise and fluid resistance. Transepithelial potential difference was then clamped to 0 mV using a WPI EVC 4000 voltage clamp. Ag/AgCI electrodes were used to monitor Isc. […] Once a response to amiloride was seen, it was washed out with KBR solution. […] 90 minutes following agent treatment, amiloride (10 uM) was added.

[3] = tested on: human CF bronchial epithelial cells; experiment: Short circuit current (Isc) in cultured human cystic fibrosis bronchial epithelial cells; assay type: cell-based
Procedure: HBE cells were isolated from CF patient lung transplant tissue and grown in collagen coated flasks for one week. The cells were then passaged and seeded onto collagen coated Costar Transwell filters (0.33 cm2) and grown in DMEM/F12 media supplemented with 2% Ultroser G. Cells were grown at an air liquid interface and used 2 to 4 weeks after seeding:
Cells on the Transwell filters were mounted in modified Costar Ussing chambers and studied under Isc conditions. […] Isc was recorded for 100 minutes and then the apical bath fluid was exchanged with fresh buffer. Trypsin (100 BAEE units/mL) was added to the apical side and Isc recorded for 10 minutes. Amiloride (10 uM) was then added to the apical side and Isc was recorded for a further 10 minutes.
HBE cells were isolated from CF patient lung transplant tissue and grown in collagen coated flasks for one week. The cells were then passaged and seeded onto collagen coated Costar Transwell filters (0.33 cm^2) and grown in DMEM/F12 media supplemented with 2% Ultroser G. Cells were grown at an air liquid interface and used 2 to 4 weeks after seeding.
Cells on the Transwell filters were mounted in modified Costar Ussing chambers and studied under Isc conditions. […] Isc was recorded for 90 minutes and then amiloride (10 uM) was added and Isc was recorded for a further 10 minutes. The apical bath fluid was then exchanged with fresh buffer, and Isc was recorded for a further 15 minutes. Trypsin (1 uM) was added to the apical side and Isc recorded for 15 minutes. Amiloride (10 uM) was then added to the apical side and Isc was recorded for a further 10 minutes.

[4] = tested on: guinea pig tracheal epithelial cells; experiment: Short circuit current (Isc) in cultured guinea pig tracheal epithelial (GPTE) cells; assay type: cell-based; conditions: 50 ug/mL; over a 30 minute period; FIG. 23
Procedure: The aim of this study was to investigate the effect of Bikunin (1-170) (See Example 17) on Isc on GPTE cells in vitro. GPTE cells were seeded onto 1.2 cm diameter, 0.4 um pore size Snapwell™ inserts (Costar UK). Cells were grown to confluence and mounted in modified Ussing chambers 2-4 days after placement on air-liquid interface. Inserts were immersed in Krebs buffer (KBR) solution and bubbled with 95% O2/5% CO2 warmed to 370 C.
After a 20 minute equilibration period, transepithelial potential difference was then clamped to 0 mV using a WPI EVC 4000 voltage clamp. Ag/AgCl electrodes were used to monitor Isc. Once a stable baseline was achieved (typically 20-30 mins), cells were treated with amiloride (30 uM). Once a response to amiloride was obtained, it was washed out with KBR solution. After return to baseline and equilibration, Bikunin (1-170) described in Example 17 (10 to 50 ug/mL) or PBS was added. 30 minutes following agent treatment amiloride (30 uM) was added.

guinea pig trachea = experiment: Tracheal potential difference in the guinea-pig; assay type: in vivo; conditions: 5 ug topical instillation; three hours of treatment; relative to vehicle; FIG. 15
Procedure: The aim of this study was to investigate the effect of the Kunitz serine protease inhibitor Bikunin, and the sodium channel blocker amiloride on guinea-pig tracheal potential difference 3 hours post treatment. These agents were delivered into the cephalad trachea by topical instillation. TPD was monitored 2 hours later for 60 minutes. The procedure used in this Example is described in Newton et al. in “Cilia, Mucus and Mucociliary Interactions,” Ed., Baum, G. L. et al., Marcel Dekker, New York, 1998; Newton et al., Ped. Pulm. S17, Abs. 364, 1998).
Aqueous formulations of Bikunin (1-170) (5 and 50 ug/mL (SEQ ID NO: 52)) (as described in Example 17 below) and amiloride (obtained from Sigma Chemicals, St. Louis, Mo., USA)(100 uM) were prepared, sterile filtered and endotoxin tested prior to use. […]
Two hours following agent treatment, guinea-pigs were anaesthetised for a second time with Hypnom® and Hypnovel® and immobilised in a supine position. Rectal temperature, measured with a thermistor probe was maintained at 37° C. by manual adjustment of a heat lamp. […] 20 min. following induction of i.m. anaesthesia the tracheal agar electrode was inserted into the cephalad trachea and tracheal potential difference was measured for 60 minutes. […]

[5] = tested on: human bronchial epithelial cell (HBE); conditions: cited from earlier work

T1 sequence (P03952 391-638 limits assumed): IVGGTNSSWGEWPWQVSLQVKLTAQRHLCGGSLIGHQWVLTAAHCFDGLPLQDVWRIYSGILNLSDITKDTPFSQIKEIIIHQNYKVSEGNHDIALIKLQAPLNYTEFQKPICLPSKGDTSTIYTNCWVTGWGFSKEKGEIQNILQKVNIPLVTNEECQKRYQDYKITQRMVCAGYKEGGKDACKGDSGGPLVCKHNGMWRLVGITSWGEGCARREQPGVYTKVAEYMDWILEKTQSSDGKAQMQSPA
T1 sequence (P03952 20-390 partner limits assumed): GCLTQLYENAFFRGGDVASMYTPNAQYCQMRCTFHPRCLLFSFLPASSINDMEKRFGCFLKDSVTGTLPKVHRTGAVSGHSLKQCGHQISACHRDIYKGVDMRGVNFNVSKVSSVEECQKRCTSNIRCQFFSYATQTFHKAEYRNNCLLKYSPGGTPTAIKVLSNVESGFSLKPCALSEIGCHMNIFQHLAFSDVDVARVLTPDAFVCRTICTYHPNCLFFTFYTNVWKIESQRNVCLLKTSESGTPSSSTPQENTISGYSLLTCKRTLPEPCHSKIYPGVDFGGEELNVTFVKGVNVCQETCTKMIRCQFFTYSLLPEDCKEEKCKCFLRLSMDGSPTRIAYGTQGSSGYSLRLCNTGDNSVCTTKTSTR

Ki (human plasma kallikrein; Collison nebulizer, 4.7 mg/mL, read-out: Activity (Ki), post-nebulization): 0.45 nM
Ki (human plasma kallikrein; Collison nebulizer, 4.7 mg/mL, read-out: Activity (Ki), pre-nebulization): 0.27 nM
Ki (human plasma kallikrein; Raindrop nebulizer, 1 mg/mL, read-out: Activity (Ki), post-nebulization): 0.76 nM
Ki (human plasma kallikrein; Raindrop nebulizer, 1 mg/mL, read-out: Activity (Ki), pre-nebulization): 0.47 nM
Ki (human plasma kallikrein; Raindrop nebulizer, 3 mg/mL, read-out: Activity (Ki), post-nebulization): 0.62 nM
Ki (human plasma kallikrein; Raindrop nebulizer, 3 mg/mL, read-out: Activity (Ki), pre-nebulization): 0.52 nM
B1: CHO Bikunin (1-170): Glycosylated placental bikunin (1-170), SEQ ID NO: 52, expressed in Chinese hamster ovary cells (Example 17) (protein, listed as Homo sapiens)
chain: ADRERSIHDFCLVSKVVGRCRASMPRWWYNVTDGSCQLFVYGGCDGNSNNYLTKEECLKKCATVTENATGDLATSRNAADSSVPSAPRRQDSEDHSSDMFNYEEYCTANAVTGPCRASFPRWYFDVERNSCNNFIYGGCRGNKNSYRSEEACMLRCFRQQENPPLPLGSK
modifications: glycosylated, CHO-expressed
stability to degradation [1]: stable to degradation
stability to aerosolization (human plasma kallikrein; Raindrop and Collison nebulizers): stable to aerosolization and retained its anti-protease activity
Forskolin induced cAMP-mediated chloride secretion and monolayer resistance ([2]; 70 nM): unaffected
sodium current ([2]; 70 nM): decreases sodium current
sodium current ([2]; 70 nM, listed as Bukinin): inhibited sodium current
inhibition of Na+ Isc ([2]; 5 ug.ml−1, normal HBE cells, n=6, further study): 84%
sodium short circuit current ([2]; 5 ug/mL, FIG. 20): decrease sodium short circuit current
Isc ([3]; 1 ug/mL): inhibited
Isc ([3]; 10 ug/mL in PBS, over a 90 minute period, FIG. 28(a)): inhibited Isc
Isc ([3]; 10 ug/mL in PBS, over a 90 minute period, FIG. 28(a), listed as CHO expressed Bikunin (1-170)): decreases sodium current
Isc ([3]; 1, 5, and 10 ug/mL, at 90 minutes after apical application, FIG. 28(b)): decreases sodium current
Isc ([3]; 1, 5, and 10 ug/mL, at 90 minutes after apical application, FIG. 28(b), listed as bikunin (1-170)): inhibited Isc
sodium current [4]: inhibited sodium current
tracheal potential difference (guinea pig trachea): inhibited the potential difference
inhibition of the baseline Isc ([5]; 70 nM, in 90 minutes (McAulay et al 1998)): 58%
inhibition of Na+ Isc ([5]; 1.5 ug.ml−1: 70 nM, normal HBE cells, n=5-8 (McAulay et al 1998)): 54%
